According to patent US20250154215A1, “PHARMACEUTICAL COMPOSITION FOR TREATING COLITIS OR COLORECTAL CANCER COMPRISING COLON-TARGETED S100A8/A9-DERIVED SPECIFIC PEPTIDE” (Industry-University Cooperation Foundation Hanyang …, priority 2023, published 2025):

Tests used:
[1] = set-up: species or system mice; conditions: mouse, in vivo
Method: (§1) FIGS. 6A-6D show the effect of rCT-S100A8/A9 peptide on colon targeting. […] Mice were exposed to 3% DSS for six days and evaluated on day 6 (left). For IB with αITGA6, αITGB1, or αActin, multiple organ harvests were used and ITGA6+ or ITGB1+ cell numbers were analyzed through FACS. […] Intraperitoneal administration of rCT-S100A8/9 conjugated with Cy5.5 for one hour and colon harvest. Colon harvests were used for IB including αITGA6, αITGB1, or αActin and ITGA6+ or ITGB1+ cell numbers were analyzed through FACS. […] Mice were treated with 3% DSS for six days and administered 1, 2, or 3 doses of Texas Red conjugated with rCT-S100A8/9. Colons were harvested in a time-dependent manner and analyzed for Texas Red+ cell numbers through FACS. Data is representative of three independent experiments with similar results. Data is shown as the mean±SD of three experiments;
S100A8 or S100A9 peptides or rCT-S100A8/9 was conjugated to Texas Red using the Texas Red® Conjugation Kit (Fast)-Lightning-Link (Abcam) to quantitatively measure cellular uptake in macrophages and pharmacodynamics in a colitis model. Cells were washed thoroughly and quickly with pulse spins and immediately acquired for analysis on FACSCalibur (BD Biosciences, San Jose, CA, USA). Data was plotted using CellQuest software (BD Biosciences) and analyzed using FlowJo software (Tree Star, Ashland, OR, USA). […]

[2] = The results of in vitro plasma stability, microsomal stability, CYP inhibition and PK profile of S100A8/A9 peptides and rCT-S100A8/A9 proteins
Method: (§2) Table printed on a drawing sheet, Fig. 5B
(§3) Title: The results of in vitro plasma stability, microsomal stability, CYP inhibition and PK profile of S100A8/A9 peptides and rCT-S100A8/A9 proteins
(§4) The patent's description of the figure: FIGS. 5A and 5B show the drug-like properties of rCT-S100A8/A9. […] Bacteria-purified 6×His-rCT-S100A8/9, rVehicle or rCT was analyzed by Coomassie staining or IB using αHis (bottom, left). BMDMs were incubated with rVehicle, rCT, or rCT-S100A8/9 for the indicated times and at the indicated concentrations, and then cell viability was measured by MTT assay (bottom, right). […] HLM, human liver microsomes; CYP, cytochrome P450. aTmax, arrival time; AUClast, total area under the plasma concentration-time curve from time 0 to the time of the last measurement; Cmax, maximum plasma concentration;
First reader's note: All values were measured after ip dosing of 1 mg/kg in mice (n = 5); the footnote for the raised a is not printed on the sheet, and the title stands once above both tables.

BMDMs = type: cell-based, mouse
Method: FIGS. 5A and 5B show the drug-like properties of rCT-S100A8/A9. […] Bacteria-purified 6×His-rCT-S100A8/9, rVehicle or rCT was analyzed by Coomassie staining or IB using αHis (bottom, left). BMDMs were incubated with rVehicle, rCT, or rCT-S100A8/9 for the indicated times and at the indicated concentrations, and then cell viability was measured by MTT assay (bottom, right). […] HLM, human liver microsomes; CYP, cytochrome […], arrival time; AUClast, total area under the plasma concentration-time curve from time 0 to the time of the last measurement; Cmax, maximum plasma concentration;

[3] = Colon targeting of Cy5.5-conjugated protein in DSS-induced acute colitis mice (FACS); conditions: mouse, in vivo, ip
Method: as §1
Fourth, to further investigate the physiological significance of rCT-S100A8/A9 in inflammatory colitis, a DSS-induced colitis mouse model was used (FIG. 6). […] Next, to evaluate the specificity of rCT-S100A8/A9, ITGA6- or ITGB1-knockdown mice were generated by sh-lentivirus transduction. […] Finally, the pharmacodynamics of rCT-S100A8/A9 were evaluated, and according to the FACS analysis, 50% of the rCT-S100A8/A9 was retained in the colon when administered for three consecutive days to the mice with DSS-induced acute colitis (FIG. 6D).

[4] = tested on: OxaR CRC cells (HT29, HCT116 and SW480); experiment: WST-8-based cell viability assay in parental and drug-resistant CRC cell lines
From the text: To establish a CRC cell model resistant to oxaliplatin, doxorubicin, or 5-FU, HT29, HT116, and SW480 cells were exposed to progressively increasing concentrations of oxaliplatin, doxorubicin, or 5-FU. The established oxaliplatin, doxorubicin, and 5-FU resistant cells were named OxaR, DoxR, and 5-FuR cells, respectively.
To confirm the inhibitory effect of rCT-S100A8/A9 on oxaliplatin resistance, the present inventors performed a water-soluble tetrazolium-8 (WST-8)-based cell viability assay using parental cells of three CRC cell lines, HT29, HCT-116 and SW480, and their corresponding oxaliplatin-resistant (OxaR) cell lines. OxaR CRC cells (HT29, HCT116 and SW480) were established by long-term exposure of CRC cells to oxaliplatin as described in Example 1.

[5] = The results of in vitro plasma stability, microsomal stability, CYP inhibition and PK profile of S100A8/A9 peptides and rCT-S100A8/A9 proteins; remark: listed apart in the source
Method: as §2, §3, §4
First reader's note: One record is the S100A8/A9 peptide and the other the recombinant rCT-S100A8/A9 protein; the CYP columns give remaining CYP isoform activity (CYP inhibition).

[6] = type: in vitro ADME; conditions: human, microsomes, 0.5 h
Method: 0.1 M phosphate buffer (pH 7.4) and S100A8/A9 peptide ([…]) or rCT-S100A8/A9 protein (10 μg/mL) were added to human liver microsomes (0.5 mg/mL). After incubation at 37° C. for five minutes, the NADPH-generating system solution was also added and incubated again at 37° C. for 30 minutes. To terminate the reaction, acetonitrile containing an internal standard (clopramide) was added, and the resulting mixture was centrifuged for five minutes (14,000 rpm, 4° C.). The supernatant was then injected into an LC-MS/MS system to analyze the microsomal stability of the tested substances.

B1: TWYKIAFQRNRKTWYKIAFQRNRKTWYKIAFQRNRKTWYKIAFQRNRKTWYKIAFQRNRKGGFLVIKGGAHKSHKGGITIITFGGGHHGGFLVIKGGAHKSHKGGITIITFGGGHHGGFLVIKGGAHKSHKGGITIITFGGGHHGG (protein)
chain: TWYKIAFQRNRKTWYKIAFQRNRKTWYKIAFQRNRKTWYKIAFQRNRKTWYKIAFQRNRKGGFLVIKGGAHKSHKGGITIITFGGGHHGGFLVIKGGAHKSHKGGITIITFGGGHHGGFLVIKGGAHKSHKGGITIITFGGGHHGG
modifications: N-terminal 6xHis tag
retained in the colon [1]: 50%
PK parameters (ip, 1 mg/kg, mice (n = 5))^a | AUClast [2]: 235.82 ± 51.48 ng·h/mL
PK parameters (ip, 1 mg/kg, mice (n = 5))^a | Cmax [2]: 213.12 ± 25.38 ng/mL
PK parameters (ip, 1 mg/kg, mice (n = 5))^a | T1/2 [2]: 1.91 ± 0.42 h
PK parameters (ip, 1 mg/kg, mice (n = 5))^a | Tmax [2]: 13.8 ± 0 min
cell viability (BMDMs): no significant effect on cell viability
tissue targeting [3]: specifically targeted the colon tissues of the mice with acute colitis
efficacy in doxorubicin-resistant (DoxR) and 5-fluorouracil-resistant (5-FuR) CRC cells ([4]; 24 h cell viability): exhibited efficacy against multidrug resistance
cell viability of OxaR CRC cells ([4]; HT29, HCT116, SW480 OxaR, 24 hours): reduced the viability of OxaR CRC cells
Stability (% remaining after 30 min) | HLM [5]: 92.1 % remaining after 30 min
microsomal stability, remaining [6]: 92%
